# Data as given in article PMC10831248, “Characterization of membrane protein interactions by peptidisc-mediated mass photometry” (iScience, 2024).
# T1: vitamin B12 ABC transporter BtuCD, reconstituted in peptidiscs (E. coli, UniProt P06609 1-326; P06611 1-249)
# T1 chain 1: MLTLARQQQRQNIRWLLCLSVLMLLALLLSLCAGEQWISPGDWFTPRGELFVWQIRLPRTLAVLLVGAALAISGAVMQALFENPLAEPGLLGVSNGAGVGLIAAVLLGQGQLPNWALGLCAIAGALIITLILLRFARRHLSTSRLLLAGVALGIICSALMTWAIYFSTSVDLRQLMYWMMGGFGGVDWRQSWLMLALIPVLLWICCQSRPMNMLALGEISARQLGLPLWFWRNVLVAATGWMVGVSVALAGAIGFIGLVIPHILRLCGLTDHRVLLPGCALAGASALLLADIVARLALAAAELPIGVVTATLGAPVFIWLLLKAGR
# T1 chain 2: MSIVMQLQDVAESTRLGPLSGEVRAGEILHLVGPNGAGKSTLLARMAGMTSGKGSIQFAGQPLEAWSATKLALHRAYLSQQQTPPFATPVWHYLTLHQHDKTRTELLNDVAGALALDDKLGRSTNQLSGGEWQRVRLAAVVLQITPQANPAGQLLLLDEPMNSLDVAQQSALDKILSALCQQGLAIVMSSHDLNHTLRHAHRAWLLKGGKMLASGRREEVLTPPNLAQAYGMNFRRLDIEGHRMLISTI
# B1: mechanosensitive channel of large conductance (MscL) from Mycobacterium tuberculosis (natural protein)
# chain: MLKGFKEFLARGNIVDLAVAVVIGTAFTALVTKFTDSIITPLINRIGVNAQSDVGILRIGIGGGQTIDLNVLLSAAINFFLIAFAVYFLVVLPYNTLRKKGEVEQPGDTQVVLLTEIRDLLAQTNGDSPGRHGGRGTPSPTDGPRASTESQ
# notes: MscL, large-conductance mechanosensitive channel, Mycobacterium tuberculosis; also called M. Tb MscL; not shown: His6, C-terminal, kept
# B2: trimeric drug efflux pump AcrB (natural protein, E. coli, UniProt P31224 1-1049, looked up)
# chain: MPNFFIDRPIFAWVIAIIIMLAGGLAILKLPVAQYPTIAPPAVTISASYPGADAKTVQDTVTQVIEQNMNGIDNLMYMSSNSDSTGTVQITLTFESGTDADIAQVQVQNKLQLAMPLLPQEVQQQGVSVEKSSSSFLMVVGVINTDGTMTQEDISDYVAANMKDAISRTSGVGDVQLFGSQYAMRIWMNPNELNKFQLTPVDVITAIKAQNAQVAAGQLGGTPPVKGQQLNASIIAQTRLTSTEEFGKILLKVNQDGSRVLLRDVAKIELGGENYDIIAEFNGQPASGLGIKLATGANALDTAAAIRAELAKMEPFFPSGLKIVYPYDTTPFVKISIHEVVKTLVEAIILVFLVMYLFLQNFRATLIPTIAVPVVLLGTFAVLAAFGFSINTLTMFGMVLAIGLLVDDAIVVVENVERVMAEEGLPPKEATRKSMGQIQGALVGIAMVLSAVFVPMAFFGGSTGAIYRQFSITIVSAMALSVLVALILTPALCATMLKPIAKGDHGEGKKGFFGWFNRMFEKSTHHYTDSVGGILRSTGRYLVLYLIIVVGMAYLFVRLPSSFLPDEDQGVFMTMVQLPAGATQERTQKVLNEVTHYYLTKEKNNVESVFAVNGFGFAGRGQNTGIAFVSLKDWADRPGEENKVEAITMRATRAFSQIKDAMVFAFNLPAIVELGTATGFDFELIDQAGLGHEKLTQARNQLLAEAAKHPDMLTSVRPNGLEDTPQFKIDIDQEKAQALGVSINDINTTLGAAWGGSYVNDFIDRGRVKKVYVMSEAKYRMLPDDIGDWYVRAADGQMVPFSAFSSSRWEYGSPRLERYNGLPSMEILGQAAPGKSTGEAMELMEQLASKLPTGVGYDWTGMSYQERLSGNQAPSLYAISLIVVFLCLAALYESWSIPFSVMLVVPLGVIGALLAATFRGLTNDVYFQVGLLTTIGLSAKNAILIVEFAKDLMDKEGKGLIEATLDAVRMRLRPILMTSLAFILGVMPLVISTGAGSGAQNAVGTGVMGGMVTATVLAIFFVPVFFVVVRRRFSRKNEDIEHSHTVDHH
# notes: AcrB, multidrug efflux pump subunit, E. coli; It is carried in a peptidisc; source: E. coli C43(DE3), purified (DDM extraction, Ni-NTA, reconstituted into peptidiscs, SEC); not shown: His6, C-terminal, kept
# B3: periplasmic B12 binding protein BtuF (natural protein)
# chain: APRVITLSPANTELAFAAGITPVGVSSYSDYPPQAQKIEQVSTWQGMNLERIVALKPDLVIAWRGGNAERQVDQLASLGIKVMWVDATSIEQIANALRQLAPWSPQPDKAEQAAQSLLDQYAQLKAQYADKPKKRVFLQFGINPPFTSGKESIQNQVLEVCGGENIFKDSRVPWPQVSREQVLARSPQAIVITGGPDQIPKIKQYWGEQLKIPVIPLTSDWFERASPRIILAAQQLCNALSQVD
# Legend:
# mass photometry = biological target: the molecule itself; assay: mass photometry
# [1] = biological target: the molecule itself; assay: mass photometry; SEC fractions of His-tagged membrane proteins purified on Ni-NTA and reconstituted into peptidiscs, diluted 100-fold in PBS to ~5-20 nM; main species: subunits together in the native oligomer or complex in one disc
# [2] = biological target: T1, vitamin B12 ABC transporter BtuCD, …; assay: 1 mM ATP
# [3] = biological target: T1, vitamin B12 ABC transporter BtuCD, …; assay: without ATP
binder,measurement,setting,value
B1,binding result,mass photometry,binds
B2,binding result,[1],binds
B3,Kd,[2],25 nM
same,Kd,[3],48 nM
